From patent US20120034215A1 (Daiichi Sankyo, published 2012)
Substitutions are numbered along the chain they refer to. One block for each binder: values may come before it.

Legend:
[1] = target: T1, recombinant MST1R-Fc fusion protein (containing 25-571 amino acid sequence of human MST1R, R&D) (human, UniProt Q04912 25-571); assay: Solution Equilibrium Titration (SET, ECL based), Fab
T1 construct: Bought from R&D systems; also called immobilized recombinant human MST1R; not shown: Fc part of the bought fusion protein (R&D systems)
T1 chain: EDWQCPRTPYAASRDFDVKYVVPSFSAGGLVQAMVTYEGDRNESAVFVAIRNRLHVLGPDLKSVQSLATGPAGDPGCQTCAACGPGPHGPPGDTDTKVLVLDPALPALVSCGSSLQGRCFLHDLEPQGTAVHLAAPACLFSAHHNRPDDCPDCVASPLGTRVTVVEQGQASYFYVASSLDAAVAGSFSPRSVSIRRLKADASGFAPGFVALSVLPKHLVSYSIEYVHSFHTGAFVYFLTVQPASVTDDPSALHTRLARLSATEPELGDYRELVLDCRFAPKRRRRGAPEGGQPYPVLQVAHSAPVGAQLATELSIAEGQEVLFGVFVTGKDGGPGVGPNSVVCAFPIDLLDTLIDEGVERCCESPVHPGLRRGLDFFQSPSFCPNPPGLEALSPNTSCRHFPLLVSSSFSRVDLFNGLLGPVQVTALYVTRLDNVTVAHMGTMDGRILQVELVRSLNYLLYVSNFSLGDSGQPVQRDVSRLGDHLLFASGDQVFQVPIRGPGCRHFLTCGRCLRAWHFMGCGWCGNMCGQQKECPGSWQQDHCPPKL

[2] = target: T1, recombinant MST1R-Fc fusion protein …; assay: SPR (Biacore 3000), Fab over directly immobilized MST1R-Fc
Experimental: With reference to Table 1, the affinity of MOR X antibodies was measured by surface plasmon resonance (Biacore) on immobilized recombinant human MST1R. The Biacore studies were performed on directly immobilized antigen.
The kinetic constants kₒₙ and koff were determined with serial dilutions of the respective Fab binding to covalently immobilized MST1R-Fc fusion protein (R&D systems) using the BIAcore 3000 instrument (Biacore). For covalent antigen immobilization standard EDC-NHS amine coupling chemistry was used. For direct coupling of MST1R-Fc fusion protein CM5 sensor chips (Biacore) were coated with ˜600-700 RU in 10 mM acetate buffer, pH 4.5. For the reference flow cell a respective amount of HSA (human serum albumin) was used. Kinetic measurements were done in PBS (136 mM NaCl, 2.7 mM KCl, 10 mM Na₂HPO₄, 1.76 mM KH₂PO₄ pH 7.4) at a flow rate of 20 μl/min using Fab concentration range from 15.6-500 nM. Injection time for each concentration was 1 min, followed by 3 min dissociation phase. For regeneration […] 10 mM HCl was used. All sensograms were globally fitted using BIA evaluation software 3.2 (Biacore).

[3] = target: T1, recombinant MST1R-Fc fusion protein …; assay: Solution Equilibrium Titration (SET, ECL based), Fab; SET (Fab), in solution; not Biacore on immobilized antigen
[4] = target: MST1R on cells (293alpha cells transfected with pcDNA-DEST40 MST1R; endogenous on PC3, T-47D and BxPC-3 cells) (human, UniProt Q04912 25-1400); assay: cell-based or functional assay
[5] = target: T2, cynomolgus monkey MST1R with N-terminal Flag tag, expressed on HEK293T cells (cynomolgus monkey, UniProt Q04912 27-1400 (human entry)); assay: flow cytometry on transfected HEK293T cells, 2 ug/ml IgG1
T2 construct: ORF cloned excluding the signal peptide region; also called cynomolgus MST1R; not shown: N-terminal Flag tag from vector pFLAG-myc-CMV-19 (Sigma)
T2 chain: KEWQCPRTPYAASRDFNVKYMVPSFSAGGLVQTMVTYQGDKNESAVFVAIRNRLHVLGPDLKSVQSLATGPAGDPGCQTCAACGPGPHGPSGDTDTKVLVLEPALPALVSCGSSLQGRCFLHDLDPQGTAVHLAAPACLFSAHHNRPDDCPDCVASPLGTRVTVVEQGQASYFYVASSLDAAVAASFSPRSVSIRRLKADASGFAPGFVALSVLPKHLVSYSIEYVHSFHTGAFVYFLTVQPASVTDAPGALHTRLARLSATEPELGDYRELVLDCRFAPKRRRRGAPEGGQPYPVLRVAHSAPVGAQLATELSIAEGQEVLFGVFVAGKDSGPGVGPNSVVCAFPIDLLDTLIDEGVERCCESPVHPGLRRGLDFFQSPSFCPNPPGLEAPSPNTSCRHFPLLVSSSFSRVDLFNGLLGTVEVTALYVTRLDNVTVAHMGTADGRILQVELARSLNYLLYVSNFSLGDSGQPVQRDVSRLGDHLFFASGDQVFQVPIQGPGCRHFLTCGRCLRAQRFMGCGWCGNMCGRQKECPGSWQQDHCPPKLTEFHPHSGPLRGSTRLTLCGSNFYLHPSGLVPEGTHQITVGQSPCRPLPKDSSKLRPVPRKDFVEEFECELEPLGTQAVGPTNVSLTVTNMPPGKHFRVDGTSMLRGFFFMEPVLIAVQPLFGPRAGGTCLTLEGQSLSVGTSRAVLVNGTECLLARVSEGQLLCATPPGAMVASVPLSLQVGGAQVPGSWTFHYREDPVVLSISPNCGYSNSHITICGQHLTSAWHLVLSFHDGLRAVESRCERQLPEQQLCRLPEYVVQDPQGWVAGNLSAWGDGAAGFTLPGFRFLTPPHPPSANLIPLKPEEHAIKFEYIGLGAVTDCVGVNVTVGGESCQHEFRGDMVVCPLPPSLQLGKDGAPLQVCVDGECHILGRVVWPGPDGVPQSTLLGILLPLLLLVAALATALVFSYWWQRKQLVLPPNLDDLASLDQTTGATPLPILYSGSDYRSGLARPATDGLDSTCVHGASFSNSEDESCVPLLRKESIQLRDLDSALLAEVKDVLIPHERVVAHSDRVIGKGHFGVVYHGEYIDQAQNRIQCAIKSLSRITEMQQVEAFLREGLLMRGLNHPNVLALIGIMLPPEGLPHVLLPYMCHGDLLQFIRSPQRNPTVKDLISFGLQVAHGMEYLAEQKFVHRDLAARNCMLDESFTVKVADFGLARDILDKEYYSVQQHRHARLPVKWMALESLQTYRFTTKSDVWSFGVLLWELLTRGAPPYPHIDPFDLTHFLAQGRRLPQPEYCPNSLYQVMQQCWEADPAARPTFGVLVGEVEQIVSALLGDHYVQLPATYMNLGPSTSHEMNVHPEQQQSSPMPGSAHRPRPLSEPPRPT
Experimental: Cells (5×10⁵ cells/well) were incubated with Fab or IgG antibodies at the indicated concentrations in 50 μl FACS buffer (PBS, 5% FCS) for 60 min at 4° C. in round bottom 96-well culture plates (Corning). Cells were washed twice and then incubated with Fluorescein Isothiocyanate (FITC) conjugated detection antibody for 30 min at 4° C. Cells were washed again, resuspended in 0.3 ml FACS buffer and then analyzed by flow cytometry in a Cytomics FC500 (Beckman Coulter, Inc.). Data were analysed via FlowJo software (Tomy digital biology Co., Ltd.). Polyclonal goat anti-hMSP R IgG (R&D systems) or anti-FLAG M2 antibody (Sigma) was used as a positive control and MOR03207 (anti-lysozyme) antibody was used as a negative control.
FACS-analysis of MST1R ortholog-expressing cells: Human MST1R (cDNA nucleotide sequence is shown as GenBank Accession No: NM_{—}002447.2), cynomolgus monkey MST1R and mouse MST1R (cDNA nucleotide sequence is shown as GeneBank Accession No: NM_{—}009074.1) expression vector containing N-terminal Flag tag (pFLAG-myc-CMV-19, Sigma) were constructed. cDNA encoding cynomolgus monkey MST1R was amplified by PCR using cynomolgus monkey stomach cDNA as a template with forward and reverse primers having nucleotide sequences of SEQ ID NO: 34 and 35, respectively. By sequencing analysis of PCR product, the cynomolgus MST1R ORF nucleotide sequence was identified as shown in SEQ ID NO: 36. The corresponding amino acid sequence was shown in SEQ ID NO: 37. Then human, cynomolgus monkey and mouse MST1R ORF cDNA, excluding signal peptide regions, were amplified using respective forward and reverse primers having nucleotide sequences of SEQ ID NO: 38 and 39 (human), 40 and 41 (cynomolgus monkey), and 42 and 43 (mouse) with appropriate cloning sites and then cloned into pFLAG-myc-CMV-19. An amplified human MST1R fragment encodes amino acids corresponding to GenBank Accession No: NP_{—}002438.2 (SEQ ID NO: 45). A Mouse MST1R fragment encodes amino acids corresponding to GenBank Accession No: NP_{—}033100.1 (SEQ ID NO: 47) except for those amino acid differences at positions: 688 (Leu to Pro), 713 (Ile to Val), 714 (Ala to Gly) and 719 (Ala to Val). These expression vectors were transfected into HEK293T cells. For FACS-analysis, cells were incubated with 2 μg/ml primary antibodies followed by incubation with FITC-labeled secondary antibody as described above.

Kd [1]: 0.02 nM | Kd [2]: 0.07 nM
B1: MOR07923 Fab (Fab, V domains shown)
VH: QVQLVESGGGLVQPGGSLRLSCAASGFTFNSYSMSWVRQAPGKGLEWVSYISSRSSTTYYADSVKGRFTISRDNSKNTLYLQMNSLRAEDTAVYYCARGYFHGMDYWGQGTLVTVSS
VL: DIVLTQSPATLSLSPGERATLSCRASQSVSFDYLGWYQQKPGQAPRLLIYGASNRATGVPARFSGSGSGTDFTLTISSLEPEDFATYYCFQYLIVPFTFGQGTKVEIKR
notes: carries two C-terminal tags (FLAG and Strep-tag II); also called Fab MOR07923

Kd [1]: 0.03 nM | Kd [2]: 0.2 nM
B2: MOR07924 Fab (Fab, V domains shown)
VH: B1 VH
VL: B1 VL with F90Q, L93N, V95N
notes: carries two C-terminal tags (FLAG and Strep-tag II); also called Fab MOR07924

Kd [2]: 0.8 nM | Kd [3]: 0.25 nM
B3: MOR07692 Fab (Fab, V domains shown)
VH: B1 VH
VL: B1 VL with F90Q, L93Y, I94N, V95M, F97Y
notes: carries two C-terminal tags (FLAG and Strep-tag II); also called Fab MOR07692

Kd [1]: 0.04 nM | Kd [2]: 0.13 nM
B4: MOR07926 Fab (Fab, V domains shown)
VH: B1 VH
VL: B1 VL with Y92A, V95M
notes: carries two C-terminal tags (FLAG and Strep-tag II); also called Fab MOR07926

Kd [1]: 0.01 nM | Kd [2]: 0.02 nM
B5: MOR07925 Fab (Fab, V domains shown)
VH: B1 VH
VL: B1 VL with F90L, L93F, I94N, V95P, F97H
notes: carries two C-terminal tags (FLAG and Strep-tag II); also called Fab MOR07925

Reporter assay IC50 (ng/ml); Elk1 luciferase reporter gene assay in the presence of 100 ng/ml MSP [4]: 87.6 ng/mL | binding result [5]: binds
B6: MOR07919 (human IgG1) (antibody, V domains shown)
VH: QVQLVQSGAEVKKPGESLKISCKGSGYSFTNYWISWVRQMPGKGLEWMGFIYPDDSYTRYSPSFQGQVTISADKSISTAYLQWSSLKASDTAMYYCARFSYRHYLDMDDHWGQGTLVTVSS
VL: DIELTQPPSVSVAPGQTARISCSGDSLGSKYVHWYQQKPGQAPVLVIYRDNKRPSGIPERFSGSNSGNTATLTISGTQAEDEADYYCQSYDATEFTYVFGGGTKLTVLG

Kd [1]: 0.27 nM | Kd [2]: 0.98 nM
B7: MOR07919 Fab (Fab, V domains shown)
VH: B6 VH
VL: B6 VL
notes: carries two C-terminal tags (FLAG and Strep-tag II); also called Fab MOR07919
